# Reference: the Immune Epitope Database (IEDB)
# Assays:
# Test in all cases: IEDB peptide-MHC binding, purified MHC/competitive/radioactivity; filed as Kd, often an IC50 or EC50 that approximates it; ≥ and ≤ were set here for values at or beyond the usual limits of such assays
# HLA-B*40:02 = target: HLA-B*40:02
# HLA-B*44:02 = target: HLA-B*44:02
# HLA-B*18:01 = target: HLA-B*18:01
# HLA-B*44:03 = target: HLA-B*44:03
# HLA-B*45:01 = target: HLA-B*45:01
# HLA-B*40:01 = target: HLA-B*40:01
# HLA-B*53:01 = target: HLA-B*53:01
# HLA-B*07:02 = target: HLA-B*07:02
# HLA-B*35:01 = target: HLA-B*35:01
# HLA-B*54:01 = target: HLA-B*54:01
# HLA-B*51:01 = target: HLA-B*51:01
# HLA-A*68:02 = settings: source organism: Vaccinia virus WR
# HLA-A*11:01 = settings: source organism: Vaccinia virus WR
# HLA-A*02:02 = settings: source organism: Vaccinia virus WR
# HLA-A*31:01 = settings: source organism: Vaccinia virus WR
# HLA-A*02:06 = settings: source organism: Vaccinia virus WR
# HLA-A*68:01 = settings: source organism: Vaccinia virus WR
# HLA-A*33:01 = settings: source organism: Vaccinia virus WR
# HLA-A*02:01 = settings: source organism: Vaccinia virus WR
# HLA-A*02:03 = settings: source organism: Vaccinia virus WR
# HLA-A*03:01 = settings: source organism: Vaccinia virus WR
# [1] = source organism: SARS coronavirus Tor2
# [2] = source organism: Vaccinia virus WR
# [3] = source organism: Triticum aestivum
# [4] = source organism: Lymphocytic choriomeningitis virus (strain Armstrong)
# [5] = source organism: Mammarenavirus choriomeningitidis
# [6] = source organism: Mammarenavirus brazilense
sequence,measurement,setting,value
NEYRQYLDAY,Kd,HLA-B*40:02; [1],0.632 µM
same,Kd,HLA-B*44:02; [1],1.99 µM
same,Kd,HLA-B*18:01; [1],0.253 µM
same,Kd,HLA-B*44:03; [1],0.0832 µM
same,Kd,HLA-B*45:01; [1],4.93 µM
same,Kd,HLA-B*40:01; [1],≥ 21.9 µM
WPNNCGWKIY,Kd,HLA-B*53:01; [2],5.57 µM
same,Kd,HLA-B*07:02; [2],≥ 22.8 µM
same,Kd,HLA-B*35:01; [2],0.593 µM
same,Kd,HLA-B*54:01; [2],1.14 µM
same,Kd,HLA-B*51:01; [2],≥ 69.6 µM
IPPYCTIAPV,Kd,HLA-B*53:01; [3],≥ 69.9 µM
same,Kd,HLA-B*07:02; [3],0.94 µM
same,Kd,HLA-B*35:01; [3],≥ 30.4 µM
same,Kd,HLA-B*54:01; [3],0.0905 µM
same,Kd,HLA-B*51:01; [3],≥ 30 µM
RERVNINIVG,Kd,HLA-B*40:02; [1],0.143 µM
same,Kd,HLA-B*44:02; [1],7.9 µM
same,Kd,HLA-B*18:01; [1],≥ 70.5 µM
same,Kd,HLA-B*44:03; [1],6.74 µM
same,Kd,HLA-B*45:01; [1],1.63 µM
same,Kd,HLA-B*40:01; [1],4.91 µM
REVKTIKVF,Kd,HLA-B*40:02; [1],0.0543 µM
same,Kd,HLA-B*44:02; [1],0.103 µM
same,Kd,HLA-B*18:01; [1],4 µM
same,Kd,HLA-B*44:03; [1],0.0878 µM
same,Kd,HLA-B*45:01; [1],6.75 µM
same,Kd,HLA-B*40:01; [1],0.219 µM
REFVATTRTL,Kd,HLA-B*40:02; [4],0.0699 µM
same,Kd,HLA-B*44:02; [4],3.18 µM
same,Kd,HLA-B*18:01; [4],14.1 µM
same,Kd,HLA-B*44:03; [4],7.56 µM
same,Kd,HLA-B*45:01; [4],≥ 30.5 µM
same,Kd,HLA-B*40:01; [4],8.64 µM
IPYLRNYMVI,Kd,HLA-A*68:02,15.5 µM
same,Kd,HLA-A*11:01,1.02 µM
same,Kd,HLA-A*02:02,≥ 70 µM
same,Kd,HLA-A*31:01,≥ 37 µM
same,Kd,HLA-B*53:01; [2],0.895 µM
same,Kd,HLA-A*02:06,≥ 69.8 µM
same,Kd,HLA-A*68:01,≥ 21.4 µM
same,Kd,HLA-A*33:01,15.5 µM
same,Kd,HLA-B*07:02; [2],0.323 µM
same,Kd,HLA-A*02:01,≥ 69.4 µM
same,Kd,HLA-A*02:03,≥ 70.4 µM
same,Kd,HLA-B*35:01; [2],≥ 43.9 µM
same,Kd,HLA-B*54:01; [2],0.829 µM
same,Kd,HLA-B*51:01; [2],≥ 25 µM
same,Kd,HLA-A*03:01,0.158 µM
AEQLMSLAA,Kd,HLA-B*40:02; [5],0.00331 µM
same,Kd,HLA-B*44:02; [5],0.214 µM
same,Kd,HLA-B*18:01; [5],3.64 µM
same,Kd,HLA-B*44:03; [5],4.48 µM
same,Kd,HLA-B*45:01; [5],0.0017 µM
same,Kd,HLA-B*40:01; [5],1.85 µM
IPKFKVTGSY,Kd,HLA-B*53:01; [2],≥ 69.9 µM
same,Kd,HLA-B*07:02; [2],6.6 µM
same,Kd,HLA-B*35:01; [2],1.23 µM
same,Kd,HLA-B*54:01; [2],≥ 58.2 µM
same,Kd,HLA-B*51:01; [2],≥ 69.6 µM
SDHLLSEML,Kd,HLA-B*40:02; [6],2.26 µM
same,Kd,HLA-B*44:02; [6],≥ 26.9 µM
same,Kd,HLA-B*18:01; [6],≥ 77.5 µM
same,Kd,HLA-B*44:03; [6],≥ 78.1 µM
same,Kd,HLA-B*45:01; [6],≥ 77.7 µM
same,Kd,HLA-B*40:01; [6],5.29 µM
KPNTWCLRCL,Kd,HLA-B*53:01; [1],2.44 µM
same,Kd,HLA-B*07:02; [1],0.339 µM
same,Kd,HLA-B*35:01; [1],≥ 69.9 µM
same,Kd,HLA-B*54:01; [1],≥ 31.1 µM
same,Kd,HLA-B*51:01; [1],≥ 69.6 µM
KQYIVATLMK,Kd,HLA-A*68:02,≥ 49 µM
same,Kd,HLA-A*11:01,0.00378 µM
same,Kd,HLA-A*02:02,10.6 µM
same,Kd,HLA-A*31:01,0.00824 µM
same,Kd,HLA-B*53:01; [2],≥ 69.9 µM
same,Kd,HLA-A*02:06,11.4 µM
same,Kd,HLA-A*68:01,1.34 µM
same,Kd,HLA-A*33:01,1.15 µM
same,Kd,HLA-B*07:02; [2],≥ 69.6 µM
same,Kd,HLA-A*02:01,11.2 µM
same,Kd,HLA-A*02:03,9.86 µM
same,Kd,HLA-B*35:01; [2],18.7 µM
same,Kd,HLA-B*54:01; [2],13.7 µM
same,Kd,HLA-B*51:01; [2],≥ 35 µM
same,Kd,HLA-A*03:01,0.0056 µM
